According to patent publication US20140356358A1 (Amgen, published 2014):
Changes are numbered by the printed parent chain. Numbers in names are those of the source. Blank lines part the entries; values can stand above or below the binder they belong to.

Assays:
[1] = molecular target: T1, human neonatal Fc receptor (hFcRn) (human, UniProt P55899 24-290; P61769 21-119); test: BLI (Octet), association pH 6, dissociation pH 7.4
T1 construct: Biotinylated in the ELISA, Octet and yeast assays; also called human FcRn; huFcRn
Text: To further characterize some of the variant Fc-fragments identified by the phage ELISA, binding of the variant Fc-fragments to FcRn at pH 6 and 7.4 was characterized for a subset of the identified variant Fc-fragments. DNA encoding selected variant Fc-fragment isolates, all from library L5, was introduced into a mammalian expression vector, which was used to transfect 293 6E cells using deacylated PEI essentially as described by Thomas et al. (Proc. Natl. Acad. Sci. 102(16): 5679-5684, 2005), the relevant portions of which are incorporated herein by reference. […] Concentrations were calculated using a standard curve created with a purified Fc fusion protein.
Biotinylated hFcRn at 100 nM was captured on streptavidin (SA) biosensors (ForteBio Inc., 18-5019) off-line at RT for 2 hours. Using these biotinylated hFcRn-coated SA biosensors in the Octet Red® system, association and dissociation of unlabeled proteins can be detected in real time via […] of light. […] Three association and dissociation conditions were set up: (1) association at pH 6 and dissociation at pH 6; (2) association at pH 6 and dissociation at pH 7.4; and (3) association at pH 7.4 and dissociation at pH 7.4. SA biosensors coated with biotinylated hFcRN were dipped into buffer at a specific pH for 1 min and then soaked in the samples containing variant Fc-fragments or controls at a specific pH for 5 min to allow binding to FcRn. The Fc biosensors were then soaked in buffer at a specific pH for 5 minutes more to allow the bound Fc-fragments to dissociate from FcRn. Detection of binding and dissociation of the Fc-fragments was possible through the use of bio-layer interferometry as implemented using the Octet Red® system, so that binding and dissociation were detected in real time.

[2] = molecular target: T1, human neonatal Fc receptor (hFcRn); test: SPR competition pH 5.5
Procedure: (§1) Binding of variant Fc-fragments to human and cynomolgus monkey FcRn was tested using a BIAcore® T100 analysis system (GE Healthcare Bio-Sciences AB Private Limited Liability Company, Uppsala, Sweden) at both pH 5.5 and pH 7.4. The test consisted of incubating various concentrations of the variant Fc-fragments or control Fc-fragments with a fixed amount of human or cynomolgus monkey FcRn under binding conditions and subsequently measuring the amount of free, unbound FcRn in these mixtures by binding to a surface (in a flow cell of a CM5 (Biacore) chip) on which an Fc-fragment was immobilized. […] Thus, the amount of unbound FcRn in the mixture was quantitatively ascertained by surface plasmon resonance through use of the BIAcore® T100 analysis system. […] Initially, a group of 23 variant-Fc-fragments (Fc-5-1 being considered a control) identified in the experiments described above were tested for binding to human FcRn.
(§2) To obtain a reasonable signal for the different molecules and conditions tested, different assay conditions were used. For assays at pH 5.5, 10 nM of human or cynomolgus monkey FcRn was mixed with serial dilutions of the variant and control Fc-fragments being tested (which ranged from 0.1˜2,000 nM) and incubated for 1 hour at room temperature in 10 mM sodium acetate, pH 5.5, 150 mM NaCl, 0.005% P20, 0.1 mg/mL BSA. As positive controls, […] human and cynomolgus monkey FcRn were each incubated in the same solution, for the same time, and at the same temperature described immediately above, but without an added Fc-fragment.

[3] = molecular target: T2, cynomolgus monkey FcRn (cynomolgus monkey, UniProt Q8SPV9 24-297; Q8SPW0 21-119, limits assumed); test: SPR competition pH 5.5
T2 construct: also called Cynomolgus FcRn
T2 sequence (Q8SPV9 24-297 limits assumed, chain 1 of 2): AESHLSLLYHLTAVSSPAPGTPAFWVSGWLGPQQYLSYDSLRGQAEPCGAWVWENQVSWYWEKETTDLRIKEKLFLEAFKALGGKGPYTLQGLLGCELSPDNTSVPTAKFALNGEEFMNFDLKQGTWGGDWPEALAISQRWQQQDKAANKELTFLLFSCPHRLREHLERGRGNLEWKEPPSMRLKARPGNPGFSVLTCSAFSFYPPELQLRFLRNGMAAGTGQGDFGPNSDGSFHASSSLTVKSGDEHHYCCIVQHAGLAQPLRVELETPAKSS
T2 sequence (Q8SPW0 21-119 limits assumed, chain 2 of 2): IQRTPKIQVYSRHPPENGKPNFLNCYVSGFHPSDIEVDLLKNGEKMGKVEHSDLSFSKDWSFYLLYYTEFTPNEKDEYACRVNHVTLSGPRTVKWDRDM
Procedure: as §1, §2

[4] = molecular target: T1, human neonatal Fc receptor (hFcRn); test: SPR competition pH 7.4
Procedure: as §1
(§3) As positive controls, 10 mM human and cynomolgus monkey FcRn were each incubated in the same solution, for the same time, and at the same temperature described immediately above, but without an added Fc-fragment.

[5] = molecular target: T2, cynomolgus monkey FcRn; test: SPR competition pH 7.4
Procedure: as §1, §3

[6] = molecular target: T1, human neonatal Fc receptor (hFcRn); test: SPR competition pH 5.5; remark: listed apart in the source
[7] = molecular target: T2, cynomolgus monkey FcRn; test: SPR competition pH 5.5; remark: listed apart in the source
[8] = molecular target: T2, cynomolgus monkey FcRn; test: SPR competition pH 7.4; remark: listed apart in the source
[9] = molecular target: T1, human neonatal Fc receptor (hFcRn); test: SPR competition pH 7.4; remark: listed apart in the source

B1: variant Fc-fragment 5-1-10 (other)
chain: EPKSCDKTHTCPPCPAPELLGGPSVFLFPPKPKDTLMISRTPEVTCVVVDVSHEDPEVKFNWYVDGVEVHNAKTKPREEQYNSTYRVVSVLTVLHQDWLNGKEYKCKVSNKALPAPIEKTISKAKGQPREPQVYTLPPSRDELTKNQVSLTCLVKGFYPSDIAVEWESGGGCGMPIEFCGGGPENNYKTTPPVLDSDGSFFLYSKLTVDKSRWQQGNVFSCSVMHEALHNHYTQKSLSLSPGK
binding result [1]: binds

B2: variant Fc-fragment 5-1-5 (other)
chain: EPKSCDKTHTCPPCPAPELLGGPSVFLFPPKPKDTLMISRTPEVTCVVVDVSHEDPEVKFNWYVDGVEVHNAKTKPREEQYNSTYRVVSVLTVLHQDWLNGKEYKCKVSNKALPAPIEKTISKAKGQPREPQVYTLPPSRDELTKNQVSLTCLVKGFYPSDIAVEWESNGQPGGCGMPIEFCGGENNYKTTPPVLDSDGSFFLYSKLTVDKSRWQQGNVFSCSVMHEALHNHYTQKSLSLSPGK
binding result [1]: binds

B3: variant Fc-fragment 5-1-7 (other)
chain: EPKSCDKTHTCPPCPAPELLGGPSVFLFPPKPKDTLMISRTPEVTCVVVDVSHEDPEVKFNWYVDGVEVHNAKTKPREEQYNSTYRVVSVLTVLHQDWLNGKEYKCKVSNKALPAPIEKTISKAKGQPREPQVYTLPPSRDELTKNQVSLTCLVKGFYPSDIAVEWESNGQPENGGCGMPIEFCGGNYKTTPPVLDSDGSFFLYSKLTVDKSRWQQGNVFSCSVMHEALHNHYTQKSLSLSPGK
binding result [1]: binds

B5: variant Fc-fragment Fc-5-106-M4I (other)
chain: EPKSCDKTHTCPPCPAPELLGGPSVFLFPPKPKDTLMISRTPEVTCVVVDVSHEDPEVKFNWYVDGVEVHNAKTKPREEQYNSTYRVVSVLTVLHQDWLNGKEYKCKVSNKALPAPIEKTISKAKGQPREPQVYTLPPSRDELTKNQVSLTCLVKGFYPSDIAVEWESNGGCVFNIFNCGGGQPENNYKTTPPVLDSDGSFFLYSKLTVDKSRWQQGNVFSCSVMHEALHNHYTQKSLSLSPGK
EC50 [6]: 2.6 nM
EC50 [7]: 3.2 nM
EC50 [8]: 970 nM

B10: variant Fc-fragment 5-1-6 (other)
chain: EPKSCDKTHTCPPCPAPELLGGPSVFLFPPKPKDTLMISRTPEVTCVVVDVSHEDPEVKFNWYVDGVEVHNAKTKPREEQYNSTYRVVSVLTVLHQDWLNGKEYKCKVSNKALPAPIEKTISKAKGQPREPQVYTLPPSRDELTKNQVSLTCLVKGFYPSDIAVEWESNGQPEGGCGMPIEFCGGNNYKTTPPVLDSDGSFFLYSKLTVDKSRWQQGNVFSCSVMHEALHNHYTQKSLSLSPGK
binding result [1]: binds

B11: variant Fc-fragment 5-1-9 (other)
chain: EPKSCDKTHTCPPCPAPELLGGPSVFLFPPKPKDTLMISRTPEVTCVVVDVSHEDPEVKFNWYVDGVEVHNAKTKPREEQYNSTYRVVSVLTVLHQDWLNGKEYKCKVSNKALPAPIEKTISKAKGQPREPQVYTLPPSRDELTKNQVSLTCLVKGFYPSDIAVEWESGGCGMPIEFCGGPENNYKTTPPVLDSDGSFFLYSKLTVDKSRWQQGNVFSCSVMHEALHNHYTQKSLSLSPGK
binding result [1]: binds

B12: variant Fc-fragment 5-1-8 (other)
chain: EPKSCDKTHTCPPCPAPELLGGPSVFLFPPKPKDTLMISRTPEVTCVVVDVSHEDPEVKFNWYVDGVEVHNAKTKPREEQYNSTYRVVSVLTVLHQDWLNGKEYKCKVSNKALPAPIEKTISKAKGQPREPQVYTLPPSRDELTKNQVSLTCLVKGFYPSDIAVEWESNGQPENNGGCGMPIEFCGGYKTTPPVLDSDGSFFLYSKLTVDKSRWQQGNVFSCSVMHEALHNHYTQKSLSLSPGK
binding result [1]: binds

The next lines start with the values.

EC50 [2]: 2.6 nM
EC50 [3]: 2.3 nM
EC50 [4]: 45 nM
EC50 [5]: 42 nM
B4: variant Fc-fragment Fc-5-1 (other)
chain: B5 chain with V173G, F174M, N175P, F177E, N178F
notes: library L5 isolate; also called variant 5-1

EC50 [6]: 10 nM
EC50 [7]: 8.3 nM
B6: variant Fc-fragment Fc-5-106-M4T (other)
chain: B5 chain with I176T

EC50 [6]: 2.3 nM
EC50 [7]: 2.8 nM
EC50 [9]: 650 nM
EC50 [8]: 710 nM
B7: variant Fc-fragment Fc-5-106-M4L (other)
chain: B5 chain with I176L

EC50 [2]: 5.3 nM
EC50 [3]: 3.6 nM
EC50 [6]: 5.4 nM
EC50 [7]: 4.6 nM
B8: variant Fc-fragment Fc-5-106 (other)
chain: B5 chain with I176M
notes: soluble elsewhere

EC50 [6]: 6.2 nM
EC50 [7]: 5 nM
B9: variant Fc-fragment Fc-5-106-M4V (other)
chain: B5 chain with I176V

binding result [1]: binds
B13: variant Fc-fragment 5-1-1 (other)
chain: EPKSCDKTHTCPPCPAPELLGGPSVFLFPPKPKDTLMISRTPEVTCVVVDVSHEDPEVKFNWYVDGVEVHNAKTKPREEQYNSTYRVVSVLTVLHQDWLNGKEYKCKVSNKALPAPIEKTISKAKGQPREPQVYTLPPSRDELTKNQVSLTCLVKGFYPSDIAVEWEGGCGMPIEFCGGSNGQPENNYKTTPPVLDSDGSFFLYSKLTVDKSRWQQGNVFSCSVMHEALHNHYTQKSLSLSPGK
